Paper PMC10762164, “Lipid nanodisc scaffold and size alter the structure of a pentameric ligand-gated ion channel” (Nature Communications, 2024)

Legend:
[1] = target: the molecule itself; test: cryo-EM structure; single particle cryo-EM of ELIC or ELIC5 in SMA, saposin, spMSP1D1 or spNW15 nanodiscs with 2:1:1 POPC:POPE:POPG; 10 mM HEPES pH 7.5, 100 mM NaCl; with 50 mM propylamine or apo; C5 symmetry in 3D classification and refinement
[2] = target: the molecule itself; test: cryo-EM structure

Protein | binding result [1] | binding result [2]
Erwinia ligand-gated ion channel (ELIC), wild type (natural protein, UniProt P0C7B7 1-321, looked up, Erwinia ligand-gated ion channel (ELIC), a pentameric ligand-gated ion channel, from plasmid pET-26-MBP-ELIC; Homopentamer; also called WT ELIC) APADNAADARPVDVSVSIFINKIYGVNTLEQTYKVDGYIVAQWTGKPRKTPGDKPLIVENTQIERWINNGLWVPALEFINVVGSPDTGNKRLMLFPDGRVIYNARFLGSFSNDMDFRLFPFDRQQFVLELEPFSYNNQQLRFSDIQVYTENIDNEEIDEWWIRKASTHISDIRYDHLSSVQPNQNEFSRITVRIDAVRNPSYYLWSFILPLGLIIAASWSVFWLESFSERLQTSFTLMLTVVAYAFYTSNILPRLPYTTVIDQMIIAGYGSIFAAILLIIFAHHRQAMGVEDDLLIQRCRLAFPLGFLAIGCVLVIRGITL | binds | 
ELIC5 (P254G/C300S/V261Y/G319F/I320F), non-desensitizing mutant of ELIC (natural protein) APADNAADARPVDVSVSIFINKIYGVNTLEQTYKVDGYIVAQWTGKPRKTPGDKPLIVENTQIERWINNGLWVPALEFINVVGSPDTGNKRLMLFPDGRVIYNARFLGSFSNDMDFRLFPFDRQQFVLELEPFSYNNQQLRFSDIQVYTENIDNEEIDEWWIRKASTHISDIRYDHLSSVQPNQNEFSRITVRIDAVRNPSYYLWSFILPLGLIIAASWSVFWLESFSERLQTSFTLMLTVVAYAFYTSNILGRLPYTTYIDQMIIAGYGSIFAAILLIIFAHHRQAMGVEDDLLIQRSRLAFPLGFLAIGCVLVIRFFTL |  | binds
